Test results reported in patent US20220112526A1, “BIOSYNTHESIS OF VANILLIN FROM ISOEUGENOL” (Conagen Inc., priority 2019, published 2022).

Experiment: Enzyme assay in vitro: formation of vanillin from isoeugenol by purified isoeugenol monooxygenase (HPLC)
Assay type: biochemical
Settings: 10 mM isoeugenol, pH 7.0, 30° C., 10 min
Procedure: The two purified isoeugenol monooxygenases were assayed by measuring the formation of vanillin in an enzymatic measuring mixture with isoeugenol as the substrate. The reaction mixture contained 10 mM isoeugenol, 100 mM potassium phosphate buffer (pH 7.0), 10% (v/v) ethanol and an appropriate amount of enzyme, in a total volume of 1 ml. The reaction was started, by adding isoeugenol as ethanol solution, carried out at 30° C. for 10 min with reciprocal shaking (160 strokes min^−1) and stopped with 1 ml of methanol. After centrifugation at 21,500, the supernatant was analyzed by HPLC for the determination of isoeugenol, vanillin, and vanillyl alcohol. CfIEM enzyme treated in boiling water for 5 minutes was used as the negative control.
As expected, no vanillin was produced with the negative control (lower panel).

B1: CfIEM: isoeugenol monooxygenase from the fungus Colletotrichum fioriniae PJ7, 539 amino acids (SEQ ID NO: 2) (protein, listed as Colletotrichum fioriniae)
chain: MAPGRTDDEAAEVATSSKTHAISNYGLTTKWPEAYDLAGSNLPCRLEGEIGDLVVLGEIPKEIDGTFYRVMTDPFVPPHPNNVPLDGDGNISAFRIKDGRVDMKMRYVETERYKLERKANKALFGLYRNPFTHHPCVRAAVDSTANTNVVLWADHFLALKEGGLPYSVDPQTLETIKYDPFGQIKAKTFTAHPKIDPYTNELVVFGYEARGLASLDIVIYALDSNGVKHDEQWIKSPWCAPIHDCAITPNWIILALWPFEASVDRMKKGGHHWAWDYDLPATFIVAPRRSSTKLPPGWQPGESRVYSWKNCMLIHTGGAWESEDGQTLFMETTRVHDNGFPFFPTNEGVYPAPDPKSDYVRWTFDLSQPTNSKVPDPEIILDMPAEFPRLDERFLSKSYNYVWINVYIHEDQNGDGHTIVEGLNGLAMHNSKTKETKCFNAGAESFCQEPIFIPRSDDAPEGDGWVMTMVERRGANRNEIVVLDTKDFEKPIAVIQLPFHVKAQVHGNWVDQRRLKAWQKLARDAVPEPISGQGALEPL
**Q.** For B1, which activity toward isoeugenol is on record?
**A.** high activity

**Q.** And the “conversion of added isoeugenol to vanillin (HPLC)” value?
**A.** Almost all isoeugenol added to the reaction mixture was converted to vanillin
